{"source": "patent US11414646", "about": "(QURATIS, dated 2022)", "molecular_target": "T1, Toll-like receptor 4 (TLR4) of mouse bone marrow-derived dendritic cells (mouse, UniProt Q9QUK6 26-835)", "T1 construct": "whole, on cells; also called TLR (toll-like receptor)-4", "T1 sequence": "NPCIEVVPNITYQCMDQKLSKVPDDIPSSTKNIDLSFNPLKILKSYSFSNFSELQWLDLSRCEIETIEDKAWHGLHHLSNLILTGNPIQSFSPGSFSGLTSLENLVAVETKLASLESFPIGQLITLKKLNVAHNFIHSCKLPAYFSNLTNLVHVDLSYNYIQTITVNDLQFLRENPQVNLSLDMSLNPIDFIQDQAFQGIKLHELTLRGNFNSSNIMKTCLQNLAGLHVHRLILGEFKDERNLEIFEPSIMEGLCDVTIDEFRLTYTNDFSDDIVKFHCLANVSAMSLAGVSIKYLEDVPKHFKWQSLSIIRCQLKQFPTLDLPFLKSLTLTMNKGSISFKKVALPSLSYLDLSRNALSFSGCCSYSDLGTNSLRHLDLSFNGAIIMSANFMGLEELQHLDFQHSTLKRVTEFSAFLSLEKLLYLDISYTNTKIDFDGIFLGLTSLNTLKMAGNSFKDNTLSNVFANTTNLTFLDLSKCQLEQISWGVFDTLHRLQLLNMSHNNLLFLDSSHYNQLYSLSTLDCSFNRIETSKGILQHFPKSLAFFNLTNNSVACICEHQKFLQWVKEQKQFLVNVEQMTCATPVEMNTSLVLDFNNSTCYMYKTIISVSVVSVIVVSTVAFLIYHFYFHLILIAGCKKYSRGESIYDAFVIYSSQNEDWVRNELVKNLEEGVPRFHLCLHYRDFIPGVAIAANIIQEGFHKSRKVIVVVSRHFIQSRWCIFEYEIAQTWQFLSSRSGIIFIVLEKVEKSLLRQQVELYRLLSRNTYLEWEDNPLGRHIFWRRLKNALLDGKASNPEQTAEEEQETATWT", "assay": "figure legend for FIGS. 3D-3F: confocal microscopy, FACS and immunoprecipitation"}
{"binder": "Recombinant Rv2299c protein (His-tagged, Mycobacterium tuberculosis H37Rv, expressed in E. coli BL21) (ligand, also called Rv2299c (His); HSP90 family protein) MNAHVEQLEFQAEARQLLDLMVHSVYSNKDAFLRELISNASDALDKLRIEALRNKDLEVDTSDLHIEIDADKAARTLTVRDNGIGMAREEVVDLIGTLAKSGTAELRAQLREAKNAAASEELIGQFGIGFYSSFMVADKVQLLTRKAGESAATRWESSGEGTYTIESVEDAPQGTSVTLHLKPEDAEDDLHDYTSEWKIRNLVKKYSDFIAWPIRMDVERRTPASQEEGGEGGEETVTIETETLNSMKALWARPKEEVSEQEYKEFYKHVAHAWDDPLEIIAMKAEGTFEYQALLFIPSHAPFDLFDRDAHVGIQLYVKRVFIMGDCDQLMPEYLRFVKGVVDAQDMSLNVSREILQQDRQIKAIRRRLTKKVLSTIKDVQSSRPEDYRTFWTQFGRVLKEGLLSDIDNRETLLGISSFVSTYSEEEPTTLAEYVERMKDGQQQIFYATGETRQQLLKSPHLEAFKAKGYEVLLLTDPVDEVWVGMVPEFDGKPLQSVAKGEVDLSSEEDTSEAEREERQKEFADLLTWLQETLSDHVKEVRLSTRLTESPACLITDAFGMTPALARIYRASGQEVPVGKRILELNPSHPLVTGLRQAHQDRADDAEKSLAETAELLYGTALLAEGGALEDPARFAELLAERLARTL", "values": [{"measurement": "binding result", "result": "binds"}]}
